Measured values published in US20230302148A1, “PHARMACEUTICAL COMPOSITION COMPRISING LONG-ACTING CONJUGATE OF TRIPLE GLUCAGON/GLP-1/GIP RECEPTOR AGONIST” (HANMI PHARM. CO., LTD., priority 2020, published 2023).
Bridges are numbered along the chain shown (N, C = ends). Where no end group is shown, it is not given here. [ ]: non-standard residue; d: D form. The star is where a group is joined. Acetyl(2-(4-imidazolyl)) = O=C(Cc1c[nH]cn1)*; Aib = CC(C)(N)C(=O)O

T1: human GIP receptor (human, UniProt P48546 22-466)
T1 sequence (looked up): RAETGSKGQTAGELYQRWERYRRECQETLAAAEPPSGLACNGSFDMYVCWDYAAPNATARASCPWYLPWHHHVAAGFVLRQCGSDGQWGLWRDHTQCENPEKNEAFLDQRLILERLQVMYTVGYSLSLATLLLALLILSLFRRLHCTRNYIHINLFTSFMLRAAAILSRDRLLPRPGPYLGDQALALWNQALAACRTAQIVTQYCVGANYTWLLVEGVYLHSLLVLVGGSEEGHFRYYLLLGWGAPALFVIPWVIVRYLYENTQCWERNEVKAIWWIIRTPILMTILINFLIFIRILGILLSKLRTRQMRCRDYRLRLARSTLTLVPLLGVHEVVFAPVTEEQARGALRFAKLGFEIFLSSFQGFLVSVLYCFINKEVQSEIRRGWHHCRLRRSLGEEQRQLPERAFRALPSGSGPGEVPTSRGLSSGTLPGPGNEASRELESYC


Legend:
Assay in all cases: cell-based or functional assay
human GCG receptor = human GCG receptor (human, UniProt P47871 26-477)
human GCG receptor, sequence (P47871 26-477): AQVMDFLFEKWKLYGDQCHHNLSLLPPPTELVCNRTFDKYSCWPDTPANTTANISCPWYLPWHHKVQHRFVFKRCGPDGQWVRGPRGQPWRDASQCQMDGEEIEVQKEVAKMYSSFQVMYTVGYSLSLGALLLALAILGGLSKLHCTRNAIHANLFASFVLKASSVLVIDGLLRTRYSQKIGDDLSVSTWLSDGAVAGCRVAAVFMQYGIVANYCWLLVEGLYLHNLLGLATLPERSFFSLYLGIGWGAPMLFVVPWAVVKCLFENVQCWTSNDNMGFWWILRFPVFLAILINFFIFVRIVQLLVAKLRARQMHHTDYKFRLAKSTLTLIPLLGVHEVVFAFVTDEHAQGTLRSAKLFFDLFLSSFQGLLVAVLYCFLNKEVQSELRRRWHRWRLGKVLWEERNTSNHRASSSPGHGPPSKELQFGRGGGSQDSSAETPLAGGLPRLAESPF

human GLP-1 receptor = human GLP-1 receptor (human, UniProt P43220 24-463)
human GIP receptor = target: T1, human GIP receptor

| Binder | In vitro activity relative to native peptide (%) vs. Glucagon (human GCG receptor) | In vitro activity relative to native peptide (%) vs. GLP-1 (human GLP-1 receptor) | In vitro activity relative to native peptide (%) vs. GIP (human GIP receptor) |
| --- | --- | --- | --- |
| Y[Aib]QGTFTSDCSKYLDERAAKDFVQWLLDHHPSSGQPPPS (bridge 16-20) [triple agonist of SEQ ID NO: 72] | 1% | 11.5% | 1.6% |
| [Acetyl(2-(4-imidazolyl))][Aib]QGTFTSDYSKCLDEKRAKEFVQWLLDHHPSSGQPPPS (bridge 16-20; not fully specified) [triple agonist of SEQ ID NO: 74] | 0.9% | 12.9% | 1% |
| H[Aib]QGTFTSDVSKYLDGQAAQEFVAWLLKGC [triple agonist of SEQ ID NO: 8] | 0.1% | 14.2% | < 0.1% |
| Y[Aib]QGTFTSDYSKYLDECRAKDFVQWLLDHHPSSGQPPPS (bridge 16-20) [triple agonist of SEQ ID NO: 66] | 172% | 15.8% | 17.2% |
| [Acetyl(2-(4-imidazolyl))][Aib]QGTFTSDYSKYLDECRAKEFVQWLLDHHPSSGQPPPS (bridge 16-20; not fully specified) [triple agonist of SEQ ID NO: 73] | 5.4% | 22.6% | 3% |
| Y[Aib]QGTFTSDYSKCLDERAAKEFVQWLLDHHPSSGQPPPS (bridge 16-20) [triple agonist of SEQ ID NO: 69] | 9.6% | 24.3% | 62.8% |
| [Acetyl(2-(4-imidazolyl))][Aib]QGTFTSDKSKYLDERAAQDFVQWLLDGGPSSGAPPPS [triple agonist of SEQ ID NO: 62] | < 0.1% | 5.2% | < 0.1% |
| [Acetyl(2-(4-imidazolyl))][Aib]QGTFTSDCSKYLDERAAQDFVQWLLDGGPSSGAPPPS [triple agonist of SEQ ID NO: 63] | < 0.1% | 15.3% | < 0.1% |
| H[Aib]EGTFTSDYSIAMDEIHQKDFVNWLLAQKC (bridge 16-20) [triple agonist of SEQ ID NO: 79] | 4.9% | 41.5% | 1.4% |
| Y[Aib]QGTFTSDYSKYLDEKAAKEFVQWLLDHHPSSGQPPPSC (bridge 16-20) [triple agonist of SEQ ID NO: 75] | 8.5% | 35.1% | 18% |
| [Acetyl(2-(4-imidazolyl))][Aib]QGTFTSDYSIAMDEIACKDFVNWLLNTK (bridge 16-20; not fully specified) [triple agonist of SEQ ID NO: 61] | < 0.1% | 59.8% | 2.8% |
| {Acetyl(2-(4-imidazolyl))}-[Aib]QGTFTSDYSIAMDEIHQKDFVNWLLAQC (bridge 15-19) [triple agonist of SEQ ID NO: 85] | < 0.1% | 4.3% | 0.3% |
| Y[Aib]QGTFTSDYSKCLDEKAAKEFVQWLLDHHPSSGQPPPS (bridge 16-20) [triple agonist of SEQ ID NO: 68] | 8.8% | 27.9% | 107% |
| Y[Aib]QGTFTSDYSKYLDEKRAKDFVQWLLDHHPSSGQPPPSC (bridge 16-20) [triple agonist of SEQ ID NO: 76] | 47.6% | 10.3% | 11.7% |
